Source: article PMC3419727, “Identifying the Hotspots on the Top Faces of WD40-Repeat Proteins from Their Primary Sequences by β-Bulges and DHSW Tetrads” (PLoS ONE, 2012)
Substitutions are numbered along the chain they refer to.

Columns and labels:
Test in all cases: ITC; Fep1 (~1.4 mM) injected, 2 µl each time, into Tup11 WT or mutant (~0.2 mM); 25°C; 1×PBS pH 7.4, 150 mM NaCl; iTC200 (MicroCal); Fep1 into buffer subtracted as background
Settings in all cases: both partners purified
[1] = target: T1, S. japonicus Tup11 WD40 domain (301–630) Phe557Ala (S. japonicus, UniProt B6JV84 301-630, Phe557Ala)
T1 construct: Tup11, S. japonicus, WD40 domain, amino acids 301-630
T1 sequence (looked up): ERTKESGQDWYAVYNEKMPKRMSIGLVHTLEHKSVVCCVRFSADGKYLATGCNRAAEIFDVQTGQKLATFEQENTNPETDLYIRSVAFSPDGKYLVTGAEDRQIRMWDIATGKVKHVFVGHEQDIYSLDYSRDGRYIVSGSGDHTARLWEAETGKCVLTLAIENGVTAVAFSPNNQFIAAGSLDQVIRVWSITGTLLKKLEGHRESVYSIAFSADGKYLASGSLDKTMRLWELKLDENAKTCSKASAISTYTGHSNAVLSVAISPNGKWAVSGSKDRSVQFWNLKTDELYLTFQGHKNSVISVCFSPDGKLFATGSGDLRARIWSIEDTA

[2] = target: T2, S. japonicus Tup11 WD40 domain (301–630) Thr467Ala (S. japonicus, UniProt B6JV84 301-630, Thr467 substituted by Ala)
T2 construct: Tup11, S. japonicus, WD40 domain, amino acids 301-630
T2 sequence (looked up): T1 sequence (looked up) with T167A, A257F

[3] = target: T3, S. japonicus Tup11 WD40 domain (301–630) Tyr426Ala (S. japonicus, UniProt B6JV84 301-630, Tyr426 substituted by Ala)
T3 construct: Tup11, S. japonicus, WD40 domain, amino acids 301-630
T3 sequence (looked up): T1 sequence (looked up) with Y126A, A257F

[4] = target: T4, S. japonicus Tup11 WD40 domain (301–630) Leu559Ala (S. japonicus, UniProt B6JV84 301-630, Leu559Ala)
T4 construct: Tup11, S. japonicus, WD40 domain, amino acids 301-630
T4 sequence (looked up): T1 sequence (looked up) with A257F, L259A

[5] = target: T5, S. japonicus Tup11 WD40 domain (amino acids 301–630), wild type (S. japonicus, UniProt B6JV84 301-630)
T5 construct: Tup11, S. japonicus, WD40 domain, amino acids 301-630; also called Tup11 WT
T5 sequence (looked up): T1 sequence (looked up) with A257F

B1: C-terminal region of S. pombe Fep1 (amino acids 319–564) (domain or fragment, UniProt Q10134 319-564, looked up)
chain: AAGEPDNNGKVYYSYGPTQEQSILPLPENKHEGLPPYQNEYVPNGIRANQVVYPGQLVAVGNDSSKQLSESTTSNTDNNGVATANQSNPLGMKFHLPPILPVGESVCLPPRTSAKPRIAEGIASLLNPEEPPSNSDKQPSMSNGPKSEVSPSQSQQAPLIQSSTSPVSLQFPPEVQGSNVDKRNYALNVLSQLRSQHDLMIQELHNLNQHIQQIDEWLRSSDNENMASEHIKSSTPAVVASGALQT
notes: Fep1, GATA-factor, S. pombe, C-terminal region, amino acids 319-564
binding result [1]: binds | binding result [2]: binds | binding result [3]: binds | reduction of binding free energy against wild type [4]: ~1 kcal/mol | Kd [5]: ~10 µM
